This test has as its target MT1-MMP cytoplasmic tail peptide (MMP-CTP) (Homo sapiens, Fe(II)-bound). As to the kind of experiment: ITC. A general note: Isothermal titration calorimetry measures the heat released or taken up as one component is titrated into another.

As usually defined, the Kd is the concentration at which binding is half-saturated. A low value points to a tighter complex.

B1: acireductone dioxygenase (Fe-HsARD) (protein)
chain: MVQAWYMDDAPGDPRQPHRPDPGRPVGLEQLRRLGVLYWKLDADKYENDPELEKIRRERNYSWMDIITICKDKLPNYEEKIKMFYEEHLHLDDEIRYILDGSGYFDVRDKEDQWIRIFMEKGDMVTLPAGIYHRFTVDEKNYTKAMRLFVGEPVWTAYNRPADHFEARGQYVKFLAQTA
For B1, the Kd is roughly 10 µM.

The record behind these values is PMC7768908 (2020).
